The values that follow come from patent publication US20200262920A1 (AMPHIVENA THERAPEUTICS, published 2020).

Test [1] deals with T1, human CD3 (human, UniProt P07766 23-207; P09693 23-182; P04234 22-171; P20963 22-164).
T1 construct: whole, on cells; the description names the epsilon chain only 'in certain instances'; also called hu CD3; CD3 on T cells
As to the kind of experiment: flow cytometry titration, T cells (human CD3+).

In test [2] the target is T2, human CD33 (human, UniProt P20138 18-364).
T2 construct: whole, on cells; also called huCD33; CD33 on HL-60, KG-1, KG-1a, U-937 cells
T2 sequence (P20138 18-364): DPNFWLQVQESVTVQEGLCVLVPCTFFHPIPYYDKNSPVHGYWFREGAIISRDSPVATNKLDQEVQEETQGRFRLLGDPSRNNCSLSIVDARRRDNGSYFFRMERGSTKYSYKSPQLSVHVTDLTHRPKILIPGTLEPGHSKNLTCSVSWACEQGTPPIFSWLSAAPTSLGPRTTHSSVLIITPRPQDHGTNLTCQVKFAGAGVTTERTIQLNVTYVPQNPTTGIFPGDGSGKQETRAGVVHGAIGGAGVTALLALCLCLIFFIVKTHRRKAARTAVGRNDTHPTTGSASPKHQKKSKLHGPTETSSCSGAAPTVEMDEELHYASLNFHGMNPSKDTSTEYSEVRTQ
As to the kind of experiment: flow cytometry titration, HL-60 cells. An outline of the steps: (§1)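 Cells titrated with CD33/CD3 2×2 T-cell engagers, detected via anti-His then FITC anti-mouse IgG on ice, with PI exclusion of dead cells. Background-subtracted mean fluorescence fit to one-site binding for KD; cross-reactivity ratio from KDs on CHO cells expressing recombinant cynomolgus or human CD33.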

In test [3] the target is T1, human CD3. As to the kind of experiment: flow cytometry, human T-cells.
Test [4] has as its target T2, human CD33. Description: flow cytometry titration, U-937 cells. An outline of the steps:
as §1

Test [5] concerns the target T2, human CD33. Description: cell-based or functional assay.
Test [6] concerns the target T2, human CD33. As to the kind of experiment: flow cytometry, HL-60 cells.
For test [7], the target named is T2, human CD33. Description: flow cytometry titration, KG-1 cells. The method, boiled down:
as §1

Another test deals with T3, cynomolgus CD33 (cynomolgus, UniProt A0A7N9ICR5 17-359).
T3 construct: whole, on cells; also called cynoCD33; cyno CD33
As to the kind of experiment: ratio of KD by flow cytometry on CHO cells expressing cynomolgus CD33 vs human CD33. How it is done: Cells were incubated with 100 μL of serial dilutions of CD33/CD3 2×2 T-cell engagers. After washing three times with FACS buffer the cells were incubated with 0.1 mL of 10 μg/mL mouse monoclonal anti-His antibody in the same buffer for 45 min on ice. After a second washing cycle, the cells were incubated with 0.1 mL of 15 μg/mL FITC-conjugated goat anti-mouse IgG antibodies under the same conditions as before. As a control, cells were incubated with the anti-His IgG followed by the FITC-conjugated goat anti-mouse IgG antibodies without anti-CD33 2×2 T-cell engagers. The cells were then washed again and resuspended in 0.2 mL of FACS buffer containing 2 μg/mL propidium iodide (PI) in order to exclude dead cells. The fluorescence of 1×10⁴ living cells was measured using a Beckman-Coulter FC500 MPL flow cytometer using the MXP software (Beckman-Coulter, Krefeld, Germany) or a Millipore Guava EasyCyte flow cytometer using the Incyte software (Merck Millipore, Schwalbach, Germany). Mean fluorescence intensities of the cell samples were calculated using CXP software (Beckman-Coulter, Krefeld, Germany) or Incyte software (Merck Millipore, Schwalbach, Germany). After subtracting the fluorescence intensity values of the cells stained with the secondary and tertiary reagents alone the values were used for calculation of the KD values with the equation for one-site binding (hyperbola) of the GraphPad Prism (version 6.00 for Windows, GraphPad Software, La Jolla Calif. USA).
CD3 binding affinity and crossreactivity were evaluated in titration and flow cytometric experiments on CD3⁺ Jurkat cells (provided by Dr. Moldenhauer, DKFZ Heidelberg; human acute T-cell leukemia) and the cynomolgus CD3⁺ HSC-F cell line (JCRB, cat.:JCRB 1164). […] The KD ratio of crossreactivity was calculated using the KD values determined on the CHO cell lines expressing either recombinant human or recombinant cynomolgus antigens.

For test [8], the target named is T1, human CD3. Description: cell-based or functional assay.

T1 sequence (P07766 23-207, chain 1 of 4): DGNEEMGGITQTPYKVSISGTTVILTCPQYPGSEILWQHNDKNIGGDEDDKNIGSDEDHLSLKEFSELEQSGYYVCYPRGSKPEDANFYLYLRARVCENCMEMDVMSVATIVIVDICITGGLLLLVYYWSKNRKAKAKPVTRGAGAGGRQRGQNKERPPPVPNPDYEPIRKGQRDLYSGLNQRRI
T1 sequence (P09693 23-182, chain 2 of 4): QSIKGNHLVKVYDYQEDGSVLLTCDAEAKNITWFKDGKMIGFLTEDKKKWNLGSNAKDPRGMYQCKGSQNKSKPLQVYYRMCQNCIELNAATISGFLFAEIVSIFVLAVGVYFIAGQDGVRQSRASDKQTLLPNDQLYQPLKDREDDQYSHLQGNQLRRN
T1 sequence (P04234 22-171, chain 3 of 4): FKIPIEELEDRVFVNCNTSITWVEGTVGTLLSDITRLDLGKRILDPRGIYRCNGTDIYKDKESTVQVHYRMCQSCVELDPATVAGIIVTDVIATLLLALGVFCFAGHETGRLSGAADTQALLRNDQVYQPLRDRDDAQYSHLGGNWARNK
T1 sequence (P20963 22-164, chain 4 of 4): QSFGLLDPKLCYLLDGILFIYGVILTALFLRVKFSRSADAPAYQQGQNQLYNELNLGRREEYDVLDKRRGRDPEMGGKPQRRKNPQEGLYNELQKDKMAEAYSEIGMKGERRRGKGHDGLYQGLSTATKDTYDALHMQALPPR

B1: CD33/CD3 2×2 T-cell engager 23 (bispecific antibody)
chain: DIQMTQSPSSLSASVGDRVTITCRSSTGAVTTSNYANWVQQKPGKAPKGLIGGTNKRAPGVPSRFSGSLIGTDFTLTISSLQPEDFATYYCALWYSNLWVFGQGTKVEIKGGSGGSQVQLVQSGAEVKKPGSSVKVSCKASGGTFSSYGISWVRQAPGQGLEWMGGIIPIFGSAHYAQKFQGRVTITADESTSTAYMELSSLRSEDTAVYYCAREYYYDSSEWAFDIWGQGTLVTVSSGGSGQSVLTQPPSASGTPGQRVTISCSGSSSNIGSNTVKWYQQLPGTAPKLLIYSNNQRSSGVPDRFSGSKSGSSASLAISGLQSEDEADYYCAAWDDSLNGYVFGGGTKLTVLGGSGGSEVQLVESGGGLVQPGGSLRLSCAASGFTFSTYAMNWVRQAPGKGLEWVGRIRSKYNNYATYYADSVKDRFTISRDDSKNSLYLQMNSLKTEDTAVYYCARHGNFGNSYVSWFAYWGQGTLVTVSS
notes: Non-covalent homodimer
As to B1, the Kd was 97.2 nM with human CD3 [1]; 0.4 nM in the test with human CD33 [2]; 97.2 nM in the test with human CD3 [3]; 5.1 nM with human CD33 [4]; 0.4 nM with human CD33 [6]; 1 nM in the test with human CD33 [7]. In the test with human CD33 [5], the “EC50 on HL-60 (cytotoxicity)” value was found to be 0.0028 nM. In addition, in the test with cynomolgus CD33, the “KD ratio cynoCD33/huCD33” value worked out at 1.9. The “CD25 Induction EC50” value in the test with human CD3 [8] came to 0.041 nM. The “CD69 Induction EC50” value with human CD3 [8] turned out to be 0.017 nM. Moreover, in the test with human CD3 [8], the “T cell Proliferation in PBMC EC50” value was determined as 0.037 nM.

B2: CD33/CD3 2×2 T-cell engager 17 (bispecific antibody)
chain: DIQMTQSPSSLSASVGDRVTITCRSSTGAVTTSNYANWVQQKPGKAPKALIGGTNKRAPGVPSRFSGSLIGDKATLTISSLQPEDFATYYCALWYSNLWVFGQGTKVEIKGGSGGSQVQLVQSGAEVKKPGESLKISCKGSGYSFTSYWIGWVRQMPGKGLEWMGIIYPGDSDTRYSPSFQGQVTISADKSISTAYLQWSSLKASDTAMYYCARHKRGSDAFDIWGQGTTVTVSSGGSGQSVLTQPPSVSGAPGQRVTISCTGSSSNIGAGYDVHWYQQLPGTAPKLLIYGNSNRPSGVPDRFSGSKSGTSASLAITGLQAEDEADYYCQSYDSSLSDVVFGGGTKLTVLGGSGGSEVQLVESGGGLVQPGGSLRLSCAASGFTFSTYAMNWVRQAPGKGLEWVGRIRSKYNNYATYYADSVKDRFTISRDDSKNSLYLQMNSLKTEDTAVYYCARHGNFGNSYVSYFAYWGQGTLVTVSSAAAGSHHHHHH
notes: Non-covalent homodimer
For B2, the Kd in the test with human CD3 [1] was found to be 3.3 nM; with human CD33 [2], 5 nM; in the test with human CD3 [3] it was 3.3 nM; with human CD33 [4] it was 24.4 nM; in the test with human CD33 [6], 5 nM; with human CD33 [7], 52.5 nM. In addition, in the test with human CD33 [5], the “EC50 on HL-60 (cytotoxicity)” value came to 0.0184 nM. Besides, the “KD ratio cynoCD33/huCD33” value with cynomolgus CD33 was 1.9. Moreover, in the test with human CD3 [8], the “CD25 Induction EC50” value came out at 0.03 nM. Moreover, in the test with human CD3 [8], the “CD69 Induction EC50” value amounted to 0.114 nM. Besides, the “T cell Proliferation in PBMC EC50” value with human CD3 [8] turned out to be 0.03 nM.

B3: CD33/CD3 2×2 T-cell engager 21 (bispecific antibody)
chain: DIQMTQSPSSLSASVGDRVTITCRSSTGAVTTSNYANWVQQKPGKAPKALIGGTNKRAPGVPSRFSGSLIGDKATLTISSLQPEDFATYYCALWYSNLWVFGQGTKVEIKGGSGGSQVQLVQSGAEVKKPGSSVKVSCKASGGTFSSYAISWVRQAPGQGLEWMGGIYPIFGSANYAQKFQGRVTITADESTSTAYMELSSLRSEDTAVYYCAREYYYDSSEWAFDIWGQGTLVTVSSGGSGQSVLTQPPSASGTPGQRVTISCSGSSSNIGSNIVNWYQQLPGTAPKLLIYSNNQRPSGVPDRFSGSKSGTSASLAISGLQSEDEADYYCAAWDDSLKGYVFGGGTKLTVLGGSGGSEVQLVESGGGLVQPGGSLRLSCAASGFTFSTYAMNWVRQAPGKGLEWVGRIRSKYNNYATYYADSVKDRFTISRDDSKNSLYLQMNSLKTEDTAVYYCARHGNFGNSYVSYFAYWGQGTLVTVSSAAAGSHHHHHH
notes: Non-covalent homodimer
Take B3: the Kd in the test with human CD3 [1] came to 2.1 nM; in the test with human CD33 [2] it was 9.7 nM; with human CD3 [3], 2.1 nM; with human CD33 [4] it was 80.2 nM; in the test with human CD33 [6] it was 9.7 nM; with human CD33 [7], 25.1 nM. Besides, the “EC50 on HL-60 (cytotoxicity)” value in the test with human CD33 [5] was determined as 0.0076 nM. The “KD ratio cynoCD33/huCD33” value with cynomolgus CD33 worked out at 0.9. Moreover, the “CD69 Induction EC50” value in the test with human CD3 [8] was determined as 0.225 nM. For the same molecule, the “T cell Proliferation in PBMC EC50” value with human CD3 [8] is 0.5 nM.

B4: CD33/CD3 2×2 T-cell engager 20 (bispecific antibody)
chain: DIQMTQSPSSLSASVGDRVTITCRSSTGAVTTSNYANWVQQKPGKAPKGLIGGTNKRAPGVPSRFSGSLIGTDFTLTISSLQPEDFATYYCALWYSNLWVFGQGTKVEIKGGSGGSQVQLVQSGAEVKKPGASVKVSCKASGYTFTSYYMHWVRQAPGQGLEWMGIINPSGGSTSYAQKFQGRVTMTRDTSTSTVYMELSSLRSEDTAVYYCARDVVPAAIDYYGMDVWGQGTTVTVSSGGSGQSVLTQPPSASGTPGQRVTISCSGSSSNIGSNTVNWYQQLPGTAPKLLIYSDNQRPSGVPDRFSGSKSGSSASLAISGLQSDDEADYYCATWDDSLNGAVFGGGTKLTVLGGSGGSEVQLVESGGGLVQPGGSLRLSCAASGFTFSTYAMNWVRQAPGKGLEWVGRIRSKYNNYATYYADSVKDRFTISRDDSKNSLYLQMNSLKTEDTAVYYCARHGNFGNSYVSWFAYWGQGTLVTVSSAAAGSHHHHHH
notes: Non-covalent homodimer
Regarding B4, the equilibrium dissociation constant (Kd) in the test with human CD3 [1] was 144 nM; with human CD33 [2] it was 4.1 nM; with human CD3 [3], 144 nM; with human CD33 [4], 7.2 nM; with human CD33 [6], 4.1 nM; in the test with human CD33 [7], 7 nM. For the same molecule, in the test with human CD33 [5], the “EC50 on HL-60 (cytotoxicity)” value came out at 0.01 nM. Besides, in the test with cynomolgus CD33, the “KD ratio cynoCD33/huCD33” value worked out at 33.8. Moreover, the “CD25 Induction EC50” value in the test with human CD3 [8] amounted to 0.098 nM. Moreover, in the test with human CD3 [8], the “CD69 Induction EC50” value was 0.075 nM. Also, the “T cell Proliferation in PBMC EC50” value with human CD3 [8] is 0.038 nM.

B5: CD33/CD3 2×2 T-cell engager 07 (bispecific antibody)
chain: DIQMTQSPSSLSASVGDRVTITCRSSTGAVTTSNYANWVQQKPGKAPKALIGGTNKRAPGVPSRFSGSLIGDKATLTISSLQPEDFATYYCALWYSNLWVFGQGTKVEIKGGSGGSQVQLQESGGGVVQPGRSLRLSCAASGFSFSNYGIHWVRQAPGKGLEWVALISYDGNKKFYADSVKGRFAISRDTSKNTVDLQMTSLRPEDTAVYYCAKDRLESAAFDYWGQGTLVTVSSGGSGGSSYELTQPPSVSVAPGQTAMITCGGNNIGSTTVHWYQQKPGQAPVLVVYDDNERPSGIPERFSGSNSGSTATLTINRVEAGDEADYYCQVWDSGSDHVVFGGGTKLTVLGGSGGSEVQLVESGGGLVQPGGSLRLSCAASGFTFSTYAMNWVRQAPGKGLEWVGRIRSKYNNYATYYADSVKDRFTISRDDSKNSLYLQMNSLKTEDTAVYYCARHGNFGNSYVSYFAYWGQGTLVTVSSAAAGSHHHHHH
notes: Non-covalent homodimer; also called 2×2 T-cell engager 7
As to B5, the Kd turned out to be 49.7 nM with human CD3 [1]; 13.7 nM in the test with human CD33 [2]; 49.7 nM in the test with human CD3 [3]; 47.1 nM with human CD33 [4]; 13.7 nM with human CD33 [6]; 47.9 nM in the test with human CD33 [7]. Further, the “EC50 on HL-60 (cytotoxicity)” value with human CD33 [5] was determined as 0.0178 nM. Moreover, the “KD ratio cynoCD33/huCD33” value in the test with cynomolgus CD33 came out at 45.8. Also, the “CD25 Induction EC50” value with human CD3 [8] amounted to 0.134 nM. Besides, the “CD69 Induction EC50” value with human CD3 [8] is 0.065 nM. Besides, in the test with human CD3 [8], the “T cell Proliferation in PBMC EC50” value is 0.05 nM.

B6: CD33/CD3 2×2 T-cell engager 18 (bispecific antibody)
chain: EVQLVESGGGLVQPGGSLRLSCAASGFTFSTYAMNWVRQAPGKGLEWVGRIRSKYNNYATYYADSVKDRFTISRDDSKNSLYLQMNSLKTEDTAVYYCARHGNFGNSYVSYFAYWGQGTLVTVSSGGSGGSQSVLTQPPSVSGAPGQRVTISCTGSSSNIGAGYDVHWYQQLPGTAPKLLIYGNSNRPSGVPDRFSGSKSGTSASLAITGLQAEDEADYYCQSYDSSLSDVVFGGGTKLTVLGGSGQVQLVQSGAEVKKPGESLKISCKGSGYSFTSYWIGWVRQMPGKGLEWMGIIYPGDSDTRYSPSFQGQVTISADKSISTAYLQWSSLKASDTAMYYCARHKRGSDAFDIWGQGTTVTVSSGGSGGSDIQMTQSPSSLSASVGDRVTITCRSSTGAVTTSNYANWVQQKPGKAPKALIGGTNKRAPGVPSRFSGSLIGDKATLTISSLQPEDFATYYCALWYSNLWVFGQGTKVEIKAAAGSHHHHHH
notes: Non-covalent homodimer
As to B6, the Kd with human CD3 [1] came to 1.9 nM; in the test with human CD33 [2] it was 3.4 nM; with human CD33 [4], 15.1 nM; in the test with human CD33 [7], 16.3 nM. Besides, in the test with human CD33 [5], the “EC50 on HL-60 (cytotoxicity)” value amounted to 0.0063 nM. In addition, in the test with cynomolgus CD33, the “KD ratio cynoCD33/huCD33” value came out at 3.1.
